Measurements from patent publication US20260125457A1 (Janssen / Centocor, published 2026).

B1: C3CRB133 CALRmut x CD3 bispecific antibody (bispecific antibody, human IgG1, kappa, L234A L235A)
scFv: DIQMTQSPSSLSASVGDRVTITCRARQSIGTAIHWYQQKPGCAPKLLIKYASESISGVPSRFSGSGSGTDFTLTISSLQPEDFATYYCQQSGSWPYTFGQGTKLEIKGGGSGGSGGCPPCGGSGGEVQLVESGGGLVKPGGSLRLSCAASGFTFSRYNMNWVRQAPGKGLEWVSSISTSSNYIYYADSVKGRFTFSRDNAKNSLDLQMSGLRAEDTAIYYCTRGWGPFDYWGCGTLVTVSSEPKSSDKTHTCPPCPAPEAAGGPSVFLFPPKPKDTLMISRTPEVTCVVVSVSHEDPEVKFNWYVDGVEVHNAKTKPREEQYNSTYRVVSVLTVLHQDWLNGKEYKCKVSNKALPAPIEKTISKAKGQPREPQVYTLPPSREEMTKNQVSLWCLVKGFYPSDIAVEWESNGQPENNYKTTPPVLDSDGSFFLYSKLTVDKSRWQQGNVFSCSVMHEALHNHYTQKSLSLSPGK
heavy: DIQMTQSPSTLSASVGDRVTITCQASQSLYNNKNLAWYQQKPGCAPKLLIYYASALASGVPSRFSGSGSGTEFTLTISSLQPDDFATYYCQGEFNCNSADCNSFGGGTKVEIKGGGSGGSGGCPPCGGSGGQVQLVQSGAEVKKPGASVKVSCKASGFSLSSYAMSWVRQAPGQGLEWMGVIDSGGTTYYAQKFQGRVTMTRDTSTSTVYMELSSLRSEDTAVYYCARESYAGYDYYGHPIPYGMEPWGCGTLVTVSSGGGGSGGGGSEVQLLESGGGLVQPGGSLRLSCAVSGIDLSNNAISWVRQAPGKGLEYVGVIGNTGDTYYADSAKGRFTISRDSSKTTLYLQMNSLRAEDTAVYFCVRGPPSYSSSVKNIWGQGTLVTVSSASTKGPSVFPLAPSSKSTSGGTAALGCLVKDYFPEPVTVSWNSGALTSGVHTFPAVLQSSGLYSLSSVVTVPSSSLGTQTYICNVNHKPSNTKVDKKVEPKSCDKTHTCPPCPAPEAAGGPSVFLFPPKPKDTLMISRTPEVTCVVVSVSHEDPEVKFNWYVDGVEVHNAKTKPREEQYNSTYRVVSVLTVLHQDWLNGKEYKCKVSNKALPAPIEKTISKAKGQPREPQVYTLPPSREEMTKNQVSLSCAVKGFYPSDIAVEWESNGQPENNYKTTPPVLDSDGSFFLVSKLTVDKSRWQQGNVFSCSVMHEALHNRFTQKSLSLSPGK
light: DIQMTQSPSSVSASVGDRVTITCQSSQSVYNNNWLSWLQQKPGKAPKRLIYDASKLESGVPSRFSGSGSGTDFTLTISSVQPEDAATYYCAGGFTGNVYTFGGGTKVEIKRTVAAPSVFIFPPSDEQLKSGTASVVCLLNNFYPREAKVQWKVDNALQSGNSQESVTEQDSKDSTYSLSSTLTLSKADYEKHKVYACEVTHQGLSSPVTKSFNRGEC
notes: Chain B heavy: CALRB1114 spFv N-terminal of the CALRB421 heavy chain
B2: C3CRB135 CALRmut x CD3 bispecific antibody (bispecific antibody, human IgG1, kappa, L234A L235A)
heavy: EVQLLESGGGLVQPGGSLRLSCAVSGIDLSNNAISWVRQAPGKGLEYVGVIGNTGDTYYADSAKGRFTISRDSSKTTLYLQMNSLRAEDTAVYFCVRGPPSYSSSVKNIWGQGTLVTVSSASTKGPSVFPLAPSSKSTSGGTAALGCLVKDYFPEPVTVSWNSGALTSGVHTFPAVLQSSGLYSLSSVVTVPSSSLGTQTYICNVNHKPSNTKVDKKVEPKSCDKTHTCPPCPAPEAAGGPSVFLFPPKPKDTLMISRTPEVTCVVVSVSHEDPEVKFNWYVDGVEVHNAKTKPREEQYNSTYRVVSVLTVLHQDWLNGKEYKCKVSNKALPAPIEKTISKAKGQPREPQVYTLPPSREEMTKNQVSLSCAVKGFYPSDIAVEWESNGQPENNYKTTPPVLDSDGSFFLVSKLTVDKSRWQQGNVFSCSVMHEALHNRFTQKSLSLSPGKGGGGSGGGGSDIQMTQSPSTLSASVGDRVTITCQASQSLYNNKNLAWYQQKPGCAPKLLIYYASALASGVPSRFSGSGSGTEFTLTISSLQPDDFATYYCQGEFNCNSADCNSFGGGTKVEIKGGGSGGSGGCPPCGGSGGQVQLVQSGAEVKKPGASVKVSCKASGFSLSSYAMSWVRQAPGQGLEWMGVIDSGGTTYYAQKFQGRVTMTRDTSTSTVYMELSSLRSEDTAVYYCARESYAGYDYYGHPIPYGMEPWGCGTLVTVSSH
light: B1 light
scFv: B1 scFv
notes: Chain A heavy: CALRB421 heavy chain with CALRB1114 spFv at the C-terminus
B3: C3CRB134 CALRmut x CD3 bispecific antibody (bispecific antibody)
scFv: B1 scFv
heavy: EVQLLESGGGLVQPGGSLRLSCAVSGIDLSNNAISWVRQAPGKGLEYVGVIGNTGDTYYADSAKGRFTISRDSSKTTLYLQMNSLRAEDTAVYFCVRGPPSYSSSVKNIWGQGTLVTVSSASTKGPSVFPLAPSSKSTSGGTAALGCLVKDYFPEPVTVSWNSGALTSGVHTFPAVLQSSGLYSLSSVVTVPSSSLGTQTYICNVNHKPSNTKVDKKVEPKSCGGGGSGGGGSDIQMTQSPSTLSASVGDRVTITCQASQSLYNNKNLAWYQQKPGCAPKLLIYYASALASGVPSRFSGSGSGTEFTLTISSLQPDDFATYYCQGEFNCNSADCNSFGGGTKVEIKGGGSGGSGGCPPCGGSGGQVQLVQSGAEVKKPGASVKVSCKASGFSLSSYAMSWVRQAPGQGLEWMGVIDSGGTTYYAQKFQGRVTMTRDTSTSTVYMELSSLRSEDTAVYYCARESYAGYDYYGHPIPYGMEPWGCGTLVTVSSEPKSSDKTHTCPPCPAPEAAGGPSVFLFPPKPKDTLMISRTPEVTCVVVSVSHEDPEVKFNWYVDGVEVHNAKTKPREEQYNSTYRVVSVLTVLHQDWLNGKEYKCKVSNKALPAPIEKTISKAKGQPREPQVYTLPPSREEMTKNQVSLSCAVKGFYPSDIAVEWESNGQPENNYKTTPPVLDSDGSFFLVSKLTVDKSRWQQGNVFSCSVMHEALHNRFTQKSLSLSPGK
light: B1 light
notes: Chain B heavy: CALRB421 Fab heavy part, CALRB1114 spFv, Fc

Legend:
[1] = molecular target: T1, wild-type calreticulin (CALRwt) expressed with MPL in engineered cancer cells (UniProt P27797 18-417, limits assumed); test: flow cytometry on OCI-M2 MPL CALRwt cells, 1 h at 37 C, AF647 secondary antibody, Geometric mean
T1 construct: whole, on cells; also called OCI-M2 MPL CALRwt
T1 sequence (looked up): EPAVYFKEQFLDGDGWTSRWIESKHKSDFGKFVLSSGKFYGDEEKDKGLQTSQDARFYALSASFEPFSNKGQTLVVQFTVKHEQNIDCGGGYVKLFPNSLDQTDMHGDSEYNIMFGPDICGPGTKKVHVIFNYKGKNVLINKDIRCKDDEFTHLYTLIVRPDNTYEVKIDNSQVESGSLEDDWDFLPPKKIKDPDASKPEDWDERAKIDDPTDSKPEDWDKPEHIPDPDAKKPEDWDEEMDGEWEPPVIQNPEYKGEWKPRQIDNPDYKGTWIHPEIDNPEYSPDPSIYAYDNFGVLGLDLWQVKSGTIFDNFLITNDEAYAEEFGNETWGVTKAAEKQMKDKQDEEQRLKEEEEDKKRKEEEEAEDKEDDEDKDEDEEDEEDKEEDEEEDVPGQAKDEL
Protocol: (§1) FIGS. 27A-27F depict binding of different CALRmutxCD3 antibodies to CALRmut-negative or CALRmut-positive cells. Flow cytometry was used to evaluate CALRmutxCD3 binding to CALRmut-negative and CALRmut-positive cancer cells in vitro. CALRmutxCD3 antibodies were tested on a panel of cell lines, engineered to express MPL and CALRmut, after 1 hour 37° C. incubation, with subsequent incubation with secondary AF647-labeled antibody. Geometric mean fluorescence intensity of AF647 was measured to determine antibody binding.

[2] = molecular target: T2, CALRins5 (mutant calreticulin, 5 base pair insertion, Type 2) expressed with MPL on engineered cancer cells (UniProt P27797 18-417); test: flow cytometry on OCI-M2 MPL CALRins5 cells, 1 h at 37 C, AF647 secondary antibody, Geometric mean
T2 construct: whole, on cells; On the cell surface in complex with MPL; also called OCI-M2 MPL CALRins5
T2 sequence (looked up): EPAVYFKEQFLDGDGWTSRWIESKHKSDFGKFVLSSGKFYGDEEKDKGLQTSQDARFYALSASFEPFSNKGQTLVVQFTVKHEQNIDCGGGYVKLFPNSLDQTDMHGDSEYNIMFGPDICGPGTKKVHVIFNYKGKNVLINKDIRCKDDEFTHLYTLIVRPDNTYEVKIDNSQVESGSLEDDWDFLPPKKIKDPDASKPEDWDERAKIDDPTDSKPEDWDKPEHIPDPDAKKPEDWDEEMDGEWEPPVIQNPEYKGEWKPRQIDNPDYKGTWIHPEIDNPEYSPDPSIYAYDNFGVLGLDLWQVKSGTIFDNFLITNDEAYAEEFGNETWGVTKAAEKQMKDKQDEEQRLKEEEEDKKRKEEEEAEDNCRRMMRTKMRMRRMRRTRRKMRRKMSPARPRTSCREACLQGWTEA
Protocol: as §1

[3] = molecular target: T2, CALRins5 (mutant calreticulin, 5 base …); test: flow cytometry on ELF-153 MPL CALRins5 cells, 1 h at 37 C, AF647 secondary antibody, Geometric mean
Protocol: as §1

Binder	binding result [1]	EC50 (read off the curve) [2] [nM]	EC50 (read off the curve) [3] [nM]
B1	no binding (tested: 100 nM)	~5	~1
B2	no binding (tested: 100 nM)	~3	~1
B3	no binding (tested: 100 nM)	~3	~1
